Consider 1 substance from US20090098111A1.

This assay deals with Xatr-XatripΔN222-FLAG complex (Xenopus laevis). In words: cell-based or functional assay.
Chain of Xatr-XatripΔN222-FLAG complex (Xenopus laevis) (Q5EGL8 whole entry, stated change not applied, one chain of several): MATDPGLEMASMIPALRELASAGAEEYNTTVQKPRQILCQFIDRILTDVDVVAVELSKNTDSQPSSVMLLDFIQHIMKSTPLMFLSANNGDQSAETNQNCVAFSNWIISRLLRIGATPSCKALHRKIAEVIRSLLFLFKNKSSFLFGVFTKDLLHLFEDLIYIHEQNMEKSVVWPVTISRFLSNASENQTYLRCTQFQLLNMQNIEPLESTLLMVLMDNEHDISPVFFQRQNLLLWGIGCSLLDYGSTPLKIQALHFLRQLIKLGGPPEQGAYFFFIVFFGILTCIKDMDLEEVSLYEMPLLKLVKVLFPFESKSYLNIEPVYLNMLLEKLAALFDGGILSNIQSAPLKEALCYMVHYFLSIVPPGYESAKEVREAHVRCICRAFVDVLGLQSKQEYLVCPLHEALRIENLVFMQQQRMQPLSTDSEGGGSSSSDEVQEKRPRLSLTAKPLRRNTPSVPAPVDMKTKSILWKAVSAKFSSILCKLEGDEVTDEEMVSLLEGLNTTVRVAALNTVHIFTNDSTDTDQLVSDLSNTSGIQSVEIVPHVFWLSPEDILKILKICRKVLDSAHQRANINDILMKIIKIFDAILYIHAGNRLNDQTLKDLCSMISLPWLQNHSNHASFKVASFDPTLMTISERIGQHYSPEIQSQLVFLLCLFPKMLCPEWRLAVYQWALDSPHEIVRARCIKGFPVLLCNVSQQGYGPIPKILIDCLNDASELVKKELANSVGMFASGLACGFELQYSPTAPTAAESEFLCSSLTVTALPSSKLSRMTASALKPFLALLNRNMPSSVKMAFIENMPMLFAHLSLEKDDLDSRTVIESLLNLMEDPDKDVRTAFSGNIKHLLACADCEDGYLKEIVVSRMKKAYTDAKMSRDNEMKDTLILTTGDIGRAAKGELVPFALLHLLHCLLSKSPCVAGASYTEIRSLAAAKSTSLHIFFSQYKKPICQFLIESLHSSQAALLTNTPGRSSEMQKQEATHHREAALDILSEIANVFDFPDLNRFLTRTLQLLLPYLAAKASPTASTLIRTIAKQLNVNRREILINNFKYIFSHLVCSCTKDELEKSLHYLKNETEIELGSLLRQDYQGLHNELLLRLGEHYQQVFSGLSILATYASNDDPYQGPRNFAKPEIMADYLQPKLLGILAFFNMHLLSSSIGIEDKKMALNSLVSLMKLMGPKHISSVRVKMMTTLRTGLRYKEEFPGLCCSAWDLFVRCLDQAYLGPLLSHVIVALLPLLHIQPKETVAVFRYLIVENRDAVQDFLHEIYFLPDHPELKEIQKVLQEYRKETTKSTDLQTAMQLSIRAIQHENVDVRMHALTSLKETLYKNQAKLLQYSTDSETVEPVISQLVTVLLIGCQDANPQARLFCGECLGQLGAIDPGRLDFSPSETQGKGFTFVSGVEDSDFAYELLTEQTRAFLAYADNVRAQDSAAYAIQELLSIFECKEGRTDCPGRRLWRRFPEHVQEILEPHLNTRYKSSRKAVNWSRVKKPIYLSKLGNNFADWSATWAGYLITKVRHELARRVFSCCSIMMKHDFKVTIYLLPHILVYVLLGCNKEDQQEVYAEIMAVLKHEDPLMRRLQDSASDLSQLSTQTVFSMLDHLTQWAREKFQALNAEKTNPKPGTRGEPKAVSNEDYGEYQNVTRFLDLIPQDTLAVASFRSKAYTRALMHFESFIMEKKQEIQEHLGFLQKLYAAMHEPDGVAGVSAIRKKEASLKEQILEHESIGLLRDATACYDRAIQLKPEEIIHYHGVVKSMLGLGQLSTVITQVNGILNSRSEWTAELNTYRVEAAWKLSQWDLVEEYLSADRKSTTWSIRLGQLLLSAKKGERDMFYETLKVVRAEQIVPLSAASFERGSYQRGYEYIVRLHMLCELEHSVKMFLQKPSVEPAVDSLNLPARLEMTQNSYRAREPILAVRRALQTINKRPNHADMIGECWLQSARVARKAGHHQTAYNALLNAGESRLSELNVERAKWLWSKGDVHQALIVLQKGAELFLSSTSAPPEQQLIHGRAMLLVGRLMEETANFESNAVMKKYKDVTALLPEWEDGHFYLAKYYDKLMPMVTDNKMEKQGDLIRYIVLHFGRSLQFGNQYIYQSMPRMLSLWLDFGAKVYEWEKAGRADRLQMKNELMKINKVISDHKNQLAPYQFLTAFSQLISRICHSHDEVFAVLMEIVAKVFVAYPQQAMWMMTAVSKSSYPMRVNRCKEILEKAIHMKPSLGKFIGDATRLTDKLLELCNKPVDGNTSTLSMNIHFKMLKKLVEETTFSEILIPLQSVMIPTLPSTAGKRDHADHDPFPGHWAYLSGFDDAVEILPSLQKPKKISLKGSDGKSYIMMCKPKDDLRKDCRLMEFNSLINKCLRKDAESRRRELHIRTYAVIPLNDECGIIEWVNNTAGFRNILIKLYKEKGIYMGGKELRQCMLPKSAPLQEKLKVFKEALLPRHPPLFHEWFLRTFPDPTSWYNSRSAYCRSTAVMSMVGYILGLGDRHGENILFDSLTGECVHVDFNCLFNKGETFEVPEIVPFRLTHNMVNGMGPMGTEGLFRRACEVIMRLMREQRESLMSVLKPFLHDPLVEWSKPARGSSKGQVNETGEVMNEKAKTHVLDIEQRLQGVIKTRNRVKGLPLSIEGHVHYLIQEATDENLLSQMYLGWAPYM

In the case of “His6-XtopBP1 (full-length) (from UniProt Q800K6 1-1513)”, the half-maximal induction of kinase activity was in the range of 10 to 15 µg/mL.
